Values of other authors, collected in patent US20200306346A1 (ADOCIA, priority 2017, published 2020).

Columns and labels:
patients = details: in vivo
[1] = test system: mammalian cells in culture

| Substance | inflammatory responses at the first dose (patients) | cytotoxicity [1] |
| --- | --- | --- |
| pegnivacogin | 3 out of 640 | – |
| fibrillated human glucagon: "potentially dangerous nature of these fibrils: fibrillated human glucagon being cytotoxic in mammalian cells in culture" | – | cytotoxic |
